Tests used:
Test in all cases: Michaelis-Menten kinetics of pNA hydrolysis (Km)
Conditions in all cases: Co2+
[1] = substrate: CSCC[C@H](N)C(=O)Nc1ccc([N+](=O)[O-])cc1; format: biochemical, Thermotoga maritima
[2] = substrate: CC(C)C[C@H](N)C(=O)Nc1ccc([N+](=O)[O-])cc1; format: biochemical, Thermotoga maritima
[3] = substrate: CC[C@H](C)[C@H](N)C(=O)Nc1ccc([N+](=O)[O-])cc1; format: biochemical, Thermotoga maritima
[4] = substrate: CSCC[C@H](N)C(=O)Nc1ccc([N+](=O)[O-])cc1; format: biochemical, Acetivibrio thermocellus
[5] = substrate: CC(C)C[C@H](N)C(=O)Nc1ccc([N+](=O)[O-])cc1; format: biochemical, Acetivibrio thermocellus
[6] = substrate: CC[C@H](C)[C@H](N)C(=O)Nc1ccc([N+](=O)[O-])cc1; format: biochemical, Acetivibrio thermocellus

B1: TmPep1050 (Thermotoga maritima MSB8) (protein)
chain: MKELIRKLTEAFGPSGREEEVRSIILEELEGHIDGHRIDGLGNLIVWKGSGEKKVILDAHIDEIGVVVTNVDDKGFLTIEPVGGVSPYMLLGKRIRFENGTIGVVGMEGETTEERQENVRKLSFDKLFIDIGANSREEAQKMCPIGSFGVYDSGFVEVSGKYVSKAMDDRIGCAVIVEVFKRIKPAVTLYGVFSVQEEVGLVGASVAGYGVPADEAIAIDVTDSADTPKAIKRHAMRLSGGPALKVKDRASISSKRILENLIEIAEKFDIKYQMEVLTFGGTNAMGYQRTREGIPSATVSIPTRYVHSPSEMIAPDDVEATVDLLIRYLGA
notes: recombinant TmPep1050 (TM1050 ORF)
Km [1]: 650 ± 50 µM
kcat [1]: 0.009 ± 0.001 s⁻¹
kcat/Km [1]: 13.8 M⁻¹ s⁻¹
Km [2]: 4000 ± 300 µM
kcat [2]: 0.253 ± 0.019 s⁻¹
kcat/Km [2]: 63.2 M⁻¹ s⁻¹
Km [3]: 1900 ± 200 µM
kcat [3]: 0.059 ± 0.008 s⁻¹
kcat/Km [3]: 31.1 M⁻¹ s⁻¹

B2: CelM (Acetivibrio thermocellus) (protein)
chain: MEEEDMFDLLKKFTGIVGVSGNEEEIREAIIEEIKECVDEIKVDTLGNLIAVKKGKGKKIMVAAHMDEIGVMVTYIDDKGFLRFSAVGGVSRYDCIGQRVKFKNGVVGAVYYEEKLEDMKNLQLSKMYIDIGARSREEALKMVNIGDVACFVGDAVLQGDTVISKALDNRSGCAVVVKAIKELKKTDNEIYFVFTVQEEVGLRGAKTAAFSIKPDIAIAVDVTMTGDTPESHPMEVKCGGGPAIKVKDRSVICHPEVRKLLEESAKRNNIPYQLEILEAGGSDPGSIHLTAGGIPSGAISIPVRYVHSPVETASMSDINNAVKLLVEAIC
notes: recombinant dodecameric CelM bearing a C-terminal hexahistidine tag
Km [4]: 2900 ± 150 µM
kcat [4]: 0.072 ± 0.006 s⁻¹
kcat/Km [4]: 24.8 M⁻¹ s⁻¹
Km [5]: 3500 ± 400 µM
kcat [5]: 0.4 ± 0.03 s⁻¹
kcat/Km [5]: 114 M⁻¹ s⁻¹
Km [6]: 2800 ± 200 µM
kcat [6]: 0.11 ± 0.01 s⁻¹
kcat/Km [6]: 39.3 M⁻¹ s⁻¹
